The text below walks through data of publication doi:10.1101/2025.05.11.653314.

This experiment concerns the target U. parvum Smc (Ureaplasma parvum). The experiment can be described thus: cross-linking.

For the substance U. parvum Smc (enzyme), the stoichiometry N worked out at 2.
